According to publication PMC4147282, “Aromatic Amino Acid Mutagenesis at the Substrate Binding Pocket of Yarrowia lipolytica Lipase Lip2 Affects Its Activity and Thermostability” (The Scientific World Journal, 2014):

Substrate: CCCCCCCCCCCCCCCC(=O)Oc1ccc([N+](=O)[O-])cc1
Assay: purified protein
Type: biochemical, Yarrowia lipolytica
Settings: 50 mmol PBS, pH 8.0, 40°C, substrate 0.2–1 mmol

B1: YLLip2 (lipase2 from Yarrowia lipolytica) (Yarrowia lipolytica) (protein)
chain: VYTSTETSHIDQESYNFFEKYARLANIGYCVGPGTKIFKPFNCGLQCAHFPNVELIEEFHDPRLIFDVSGYLAVDHASKQIYLVIRGTHSLEDVITDIRIMQAPLTNFDLAANISSTATCDDCLVHNGFIQSYNNTYNQIGPKLDSVIEQYPDYQIAVTGHSLGGAAALLFGINLKVNGHDPLVVTLGQPIVGNAGFANWVDKLFFGQENPDVSKVSKDRKLYRITHRGDIVPQVPFWDGYQHCSGEVFIDWPLIHPPLSNVVMCQGQSNKQCSAGNTLLQQVNVIGNHLQYFVTEGVCGI
notes: mature YLLip2, own prepro replaced by XPR2pre secretion signal, N-terminal 6xHis tag kept (HHHHHH-VYTST...); secreted from Y. lipolytica JMY1212 (plasmid pYL-H6-mYLLip2); IMAC purified; approx. 38 kDa on SDS-PAGE
With B1 the kcat was 157 ± 1 s⁻¹.
